Here are results for 47 molecules from US20030220243A1 (Eli Lilly, published 2003).

The target of the assay is GLP-1 receptor. In words: cell-based or functional assay.

Substitutions are numbered along the chain they refer to. Ends that are not written are not given here.

B1: Val^8-Lys^20-GLP-1(7-37)OH (peptide)
peptide: HVEGTFTSDVSSYKEGQAAKEFIAWLVKGRG
For the molecule B1, the “GLP-1 Receptor Activation” value was 0.33 relative to GLP-1(7-37)OH.

B2: Gln^22-GLP-1(7-37)OH (peptide)
peptide: B1 peptide with V2A, K14L, G16Q
As for B2, the “GLP-1 Receptor Activation” value is 0.42 relative to GLP-1(7-37)OH.

B3: Val^8-Ser^22-GLP-1(7-37)OH (peptide)
peptide: B1 peptide with K14L, G16S
For the molecule B3, the “GLP-1 Receptor Activation” value was 0.5 relative to GLP-1(7-37)OH.

B4: Val^8-His^24-GLP-1(7-37)OH (peptide)
peptide: B1 peptide with K14L, A18H
In the case of B4, the “GLP-1 Receptor Activation” value was 0.007 relative to GLP-1(7-37)OH.

B5: Val^8-Lys^22-Glu^30-GLP-1(7-37)OH (peptide)
peptide: B1 peptide with K14L, G16K, A24E
On to B5, for which the “GLP-1 Receptor Activation” value is 0.37 relative to GLP-1(7-37)OH.

B6: Val^8-His^27-GLP-1(7-37)OH (peptide)
peptide: B1 peptide with K14L, E21H
For B6, the “GLP-1 Receptor Activation” value was 0.37 relative to GLP-1(7-37)OH.

B7: Val^8-Tyr^16-GLP-1(7-37)OH (peptide)
peptide: B1 peptide with V10Y, K14L
In the case of B7, the “GLP-1 Receptor Activation” value is 1.18 relative to GLP-1(7-37)OH.

B8: Val^8-Leu^16-Glu^26-GLP-1(7-37)OH (peptide)
peptide: B1 peptide with V10L, K14L, K20E
Consider B8, for which the “GLP-1 Receptor Activation” value is 0.23 relative to GLP-1(7-37)OH.

B9: Val^8-Ala^11-GLP-1(7-37)OH (peptide)
peptide: B1 peptide with T5A, K14L
In the case of B9, the “GLP-1 Receptor Activation” value was 0.021 relative to GLP-1(7-37)OH.

B10: Ala^8-His^26-GLP-1(7-37)OH (peptide)
peptide: B1 peptide with V2A, K14L, K20H
For B10, the “GLP-1 Receptor Activation” value is 0.8 relative to GLP-1(7-37)OH.

B11: Val^8-Glu^34-GLP-1(7-37)OH (peptide)
peptide: B1 peptide with K14L, K28E
For B11, the “GLP-1 Receptor Activation” value was 0.17 relative to GLP-1(7-37)OH.

B12: Val^8-Lys^24-GLP-1(7-37)OH (peptide)
peptide: B1 peptide with K14L, A18K
Consider B12, for which the “GLP-1 Receptor Activation” value is 0.02 relative to GLP-1(7-37)OH.

B13: Val^8-Glu^16-GLP-1(7-37)OH (peptide)
peptide: B1 peptide with V10E, K14L
Consider B13, for which the “GLP-1 Receptor Activation” value is 0.047 relative to GLP-1(7-37)OH.

B14: Val^8-Gly^34-Lys^35-GLP-1(7-37)OH (peptide)
peptide: B1 peptide with K14L, K28G, G29K
As to B14, the “GLP-1 Receptor Activation” value is 0.34 relative to GLP-1(7-37)OH.

B15: Val^8-Asp^30-GLP-1(7-37)OH (peptide)
peptide: B1 peptide with K14L, A24D
B15: the “GLP-1 Receptor Activation” value was 0.15 relative to GLP-1(7-37)OH.

B16: Gly^8-His^11-GLP-1(7-37)OH (peptide)
peptide: B1 peptide with V2G, T5H, K14L
On to B16, for which the “GLP-1 Receptor Activation” value is 0.282 relative to GLP-1(7-37)OH.

B17: Val^8-His^22-GLP-1(7-37)OH (peptide)
peptide: B1 peptide with K14L, G16H
Consider B17, for which the “GLP-1 Receptor Activation” value was 0.14 relative to GLP-1(7-37)OH.

B18: Val^8-Ala^33-GLP-1(7-37)OH (peptide)
peptide: B1 peptide with K14L, V27A
With B18, the “GLP-1 Receptor Activation” value was 0.1 relative to GLP-1(7-37)OH.

B19: Val^8-His^37-GLP-1(7-37)OH (peptide)
peptide: B1 peptide with K14L, G31H
For the molecule B19, the “GLP-1 Receptor Activation” value is 0.33 relative to GLP-1(7-37)OH.

B20: Val^8-Ala^16-GLP-1(7-37)OH (peptide)
peptide: B1 peptide with V10A, K14L
For the molecule B20, the “GLP-1 Receptor Activation” value is 0.112 relative to GLP-1(7-37)OH.

B21: Val^8-Pro^35-GLP-1(7-37)OH (peptide)
peptide: B1 peptide with K14L, G29P
Regarding B21, the “GLP-1 Receptor Activation” value is 0.094 relative to GLP-1(7-37)OH.

B22: Val^8-Lys^33-Asn^34-GLP-1(7-37)OH (peptide)
peptide: B1 peptide with K14L, V27K, K28N
On to B22, for which the “GLP-1 Receptor Activation” value is 0.09 relative to GLP-1(7-37)OH.

B23: Val^8-Glu^36-GLP-1(7-37)OH (peptide)
peptide: B1 peptide with K14L, R30E
On to B23, for which the “GLP-1 Receptor Activation” value is 0.11 relative to GLP-1(7-37)OH.

B24: Val^8-Glu^35-GLP-1(7-37)OH (peptide)
peptide: B1 peptide with K14L, G29E
Take B24: the “GLP-1 Receptor Activation” value was 0.15 relative to GLP-1(7-37)OH.

B25: Val^8-His^30-GLP-1(7-37)OH (peptide)
peptide: B1 peptide with K14L, A24H
For the molecule B25, the “GLP-1 Receptor Activation” value is 0.19 relative to GLP-1(7-37)OH.

B26: Gly^8-Glu^30-GLP-1(7-37)OH (peptide)
peptide: B1 peptide with V2G, K14L, A24E
As for B26, the “GLP-1 Receptor Activation” value was 0.29 relative to GLP-1(7-37)OH.

B27: Val^8-His^35-GLP-1(7-37)OH (peptide)
peptide: B1 peptide with K14L, G29H
Consider B27, for which the “GLP-1 Receptor Activation” value was 0.41 relative to GLP-1(7-37)OH.

B28: Ala^8-Glu^26-GLP-1(7-37)OH (peptide)
peptide: B1 peptide with V2A, K14L, K20E
With B28, the “GLP-1 Receptor Activation” value is 0.7 relative to GLP-1(7-37)OH.

B29: Val^8-Lys^33-Val^34-GLP-1(7-37)OH (peptide)
peptide: B1 peptide with K14L, V27K, K28V
In the case of B29, the “GLP-1 Receptor Activation” value was 0.08 relative to GLP-1(7-37)OH.

B30: Val^8-Lys^23-GLP-1(7-37)OH (peptide)
peptide: B1 peptide with K14L, Q17K
Consider B30, for which the “GLP-1 Receptor Activation” value was 0.18 relative to GLP-1(7-37)OH.

B31: Val^8-Ser^30-GLP-1(7-37)OH (peptide)
peptide: B1 peptide with K14L, A24S
On to B31, for which the “GLP-1 Receptor Activation” value was 0.19 relative to GLP-1(7-37)OH.

B32: Val^8-Glu^33-GLP-1(7-37)OH (peptide)
peptide: B1 peptide with K14L, V27E
Consider B32, for which the “GLP-1 Receptor Activation” value was 0.039 relative to GLP-1(7-37)OH.

B33: Val^8-Glu^22-Lys^23-GLP-1(7-37)OH (peptide)
peptide: B1 peptide with K14L, G16E, Q17K
On to B33, for which the “GLP-1 Receptor Activation” value was 1.43 relative to GLP-1(7-37)OH.

B34: Val^8-Lys^11-GLP-1(7-37)OH (peptide)
peptide: B1 peptide with T5K, K14L
Take B34: the “GLP-1 Receptor Activation” value is 0.001 relative to GLP-1(7-37)OH.

B35: Val^8-His^36-GLP-1(7-37)OH (peptide)
peptide: B1 peptide with K14L, R30H
On to B35, for which the “GLP-1 Receptor Activation” value was 0.22 relative to GLP-1(7-37)OH.

B36: Val^8-Asp^22-GLP-1(7-37)OH (peptide)
peptide: B1 peptide with K14L, G16D
In the case of B36, the “GLP-1 Receptor Activation” value was 0.4 relative to GLP-1(7-37)OH.

B37: Val^8-Gly^33-GLP-1(7-37)OH (peptide)
peptide: B1 peptide with K14L, V27G
B37: the “GLP-1 Receptor Activation” value is 0.01 relative to GLP-1(7-37)OH.

B38: Val^8-Pro^22-GLP-1(7-37)OH (peptide)
peptide: B1 peptide with K14L, G16P
In the case of B38, the “GLP-1 Receptor Activation” value is 0.01 relative to GLP-1(7-37)OH.

B39: Val^8-Ala^22-GLP-1(7-37)OH (peptide)
peptide: B1 peptide with K14L, G16A
As to B39, the “GLP-1 Receptor Activation” value is 0.56 relative to GLP-1(7-37)OH.

B40: Val^8-Glu^30-GLP-1(7-37)OH (peptide)
peptide: B1 peptide with K14L, A24E
B40: the “GLP-1 Receptor Activation” value was 0.29 relative to GLP-1(7-37)OH.

B41: Val^8-Tyr^12-GLP-1(7-37)OH (peptide)
peptide: B1 peptide with F6Y, K14L
As for B41, the “GLP-1 Receptor Activation” value was 0.81 relative to GLP-1(7-37)OH.

B42: Val^8-Lys^22-GLP-1(7-37)OH (peptide)
peptide: B1 peptide with K14L, G16K
Consider B42, for which the “GLP-1 Receptor Activation” value was 0.58 relative to GLP-1(7-37)OH.

B43: Val^8-Gly^36-Pro^37-GLP-1(7-37)NH2 (peptide)
peptide: HVEGTFTSDVSSYLEGQAAKEFIAWLVKGGP-NH2
For B43, the “GLP-1 Receptor Activation” value is 0.53 relative to GLP-1(7-37)OH.

B44: Val^8-Glu^23-GLP-1(7-36)OH (peptide)
peptide: HVEGTFTSDVSSYLEGEAAKEFIAWLVKGR
Turning to B44, the “GLP-1 Receptor Activation” value was 0.28 relative to GLP-1(7-37)OH.

B45: Val^8-Lys^22-GLP-1(7-36)NH2 (peptide)
peptide: HVEGTFTSDVSSYLEKQAAKEFIAWLVKGR-NH2
Turning to B45, the “GLP-1 Receptor Activation” value was 0.53 relative to GLP-1(7-37)OH.

B46: Val^8-Glu^22-GLP-1(7-36)NH2 (peptide)
peptide: HVEGTFTSDVSSYLEEQAAKEFIAWLVKGR-NH2
For the molecule B46, the “GLP-1 Receptor Activation” value is 1 relative to GLP-1(7-37)OH.

B47: Val^8-Lys^22-Glu^23-GLP-1(7-37)OH (peptide)
peptide: HVEGTFTSDVSSYLEKEAAKEFIAWLVKGRH
Turning to B47, the “GLP-1 Receptor Activation” value was 0.35 relative to GLP-1(7-37)OH.
